# Data: patent publication EP4596580A1 (Staidson (Beijing) Biopharmaceuticals Co., Ltd., dated 2025)
# Read-outs that look alike come from different tables or passages of the source.
# T1: His-human LIGHT (human)
# T1 construct: also called His-huLIGHT; free LIGHT
# T1 chain: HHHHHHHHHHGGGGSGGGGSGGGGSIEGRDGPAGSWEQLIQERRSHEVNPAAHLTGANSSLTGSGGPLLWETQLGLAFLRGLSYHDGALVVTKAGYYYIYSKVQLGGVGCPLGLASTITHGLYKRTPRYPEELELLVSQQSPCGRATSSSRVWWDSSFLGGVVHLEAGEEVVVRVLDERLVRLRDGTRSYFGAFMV
# T2: His-cynomolgus monkey LIGHT (cynomolgus monkey)
# T2 construct: also called His-cynoLIGHT
# T2 chain: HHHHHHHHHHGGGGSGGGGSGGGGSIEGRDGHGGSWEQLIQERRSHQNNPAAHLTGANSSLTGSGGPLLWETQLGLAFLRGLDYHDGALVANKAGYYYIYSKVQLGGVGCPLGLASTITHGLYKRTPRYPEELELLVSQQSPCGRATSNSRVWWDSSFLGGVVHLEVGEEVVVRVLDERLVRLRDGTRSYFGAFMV
# Legend:
# [1] = molecular target: T3, LIGHT on the surface of HEK293-LIGHT stable cells (human, UniProt O43557 1-240); assay: cell-based or functional assay
# hFc-human LIGHT [2] = molecular target: T4, hFc-human LIGHT (human); assay: competition ELISA, LTβR-His coated, hFc-huLIGHT added
# T4 construct: also called hFc-huLIGHT
# His-human LIGHT [3] = molecular target: T1, His-human LIGHT; assay: ELISA, His-huLIGHT coated
# [4] = molecular target: T2, His-cynomolgus monkey LIGHT; assay: ELISA, His-cynoLIGHT coated
# His-human LIGHT [5] = molecular target: T1, His-human LIGHT; assay: cell-based or functional assay
# His-human LIGHT [6] = molecular target: T1, His-human LIGHT; assay: cell-based or functional assay
# His-human LIGHT [7] = molecular target: T1, His-human LIGHT; assay: SPR, Biacore 8K, antibody on CM5 chip, human LIGHT
# [8] = molecular target: T3, LIGHT on the surface of HEK293-LIGHT …; assay: cell-based or functional assay; remark: listed apart in the source
# hFc-human LIGHT [9] = molecular target: T4, hFc-human LIGHT; assay: competition ELISA, LTβR-His coated, hFc-huLIGHT added; remark: listed apart in the source
# His-human LIGHT [10] = molecular target: T1, His-human LIGHT; assay: ELISA, His-huLIGHT coated
# His-human LIGHT [11] = molecular target: T1, His-human LIGHT; assay: cell-based or functional assay
# His-human LIGHT [12] = molecular target: T1, His-human LIGHT; assay: cell-based or functional assay
# His-human LIGHT [13] = molecular target: T1, His-human LIGHT; assay: cell-based or functional assay
# His-human LIGHT [14] = molecular target: T1, His-human LIGHT; assay: cell-based or functional assay
# His-human LIGHT [15] = molecular target: T1, His-human LIGHT; assay: ELISA, His-huLIGHT coated
# hFc-human LIGHT [16] = molecular target: T4, hFc-human LIGHT; assay: competition ELISA, LTβR-His coated, hFc-huLIGHT added; remark: listed apart in the source
Binder,"IC50, LTβR NF-κB luciferase reporter, HEK293-LIGHT cells [1] [µg/mL]",IC50 (hFc-human LIGHT [2]) [pM],EC50 (His-human LIGHT [3]) [µg/mL],EC50 [4] [pM],"IC50, HVEM NF-κB luciferase reporter, free LIGHT (His-human LIGHT [5]) [µg/mL]","IC50, LTβR NF-κB luciferase reporter, free LIGHT (His-human LIGHT [6]) [µg/mL]",Kd (His-human LIGHT [7]) [pM],koff (His-human LIGHT [7]) [s⁻¹],kon (His-human LIGHT [7]) [M⁻¹ s⁻¹],"IC50, LTβR NF-κB luciferase reporter, HEK293-LIGHT cells [8] [pM]",IC50 (hFc-human LIGHT [9]) [pM],EC50 (His-human LIGHT [10]) [pM],"IC50, LIGHT induced MMP-9 production in BEAS-2B bronchial epithelial cells (His-human LIGHT [11]) [µg/mL]","IC50, proliferation of CD3+ T cells stimulated by plate-bound anti-CD3 and His-huLIGHT (CellTiter Glo) (His-human LIGHT [12]) [µg/mL]","IC50, LTβR NF-κB luciferase reporter, free LIGHT (His-human LIGHT [13]) [pM]","IC50, HVEM NF-κB luciferase reporter, free LIGHT (His-human LIGHT [14]) [pM]",EC50 (His-human LIGHT [15]) [pM],IC50 (hFc-human LIGHT [16]) [pM]
"hum_LT-m37-13 (antibody, human IgG4, V domains shown, humanized from LT-m37) VH: QVQLVQSGAEVKKPGASVKVSCKASGYSFTGYFINWVRQAPGQGLEWIGRIYPYNVDTFYNQNFKGRVTMTADKSTSTAYMELSSLRSEDTAVYYCGRGTHYYGSSGAMDYWGQGTLVTVSS VL: EIVLTQSPATLSVSPGERATLSCKASQNVGTAVAWYQQKPGQSPRLLIYSASNRYTGIPARFSGSGSGTEFTLTISSLQSEDFAVYFCQQYSSYPYTFGGGTKVEIK",,,,104,,,,,,867,867,42.2,0.358,0.311,227,,,
"hum_LT-m37-15 (antibody, human IgG4, V domains shown, humanized from LT-m37) VH: QVQLVQSGAEVKKPGASVKVSCKASGYSFTGYFINWVRQAPGQGLEWIGRIYPYNVDTFYNQNFKGRATMTADKSTSTAYMELSSLRSEDTAVYYCGRGTHYYGSSGAMDYWGQGTLVTVSS VL: EIVLTQSPATLSVSPGERATLSCKASQNVGTAVAWYQQKPGQSPRLLIYSASNRYTGIPARFSGSGSGTEFTLTISSLQSEDFAVYYCQQYSSYPYTFGGGTKVEIK",,,,130,,,,,,1280,844,65.8,0.197,0.195,219,120,,
"hum_LT-m37-6 (antibody, human IgG4, V domains shown, humanized from LT-m37) VH: QVQLVQSGAEVKKPGASVKVSCKASGYSFTGYFINWVRQAPGQGLEWIGRIYPYNVNTFYNQNFKGRATLTADKSTSTAYMELSSLRSEDTAVYYCGRGTHYYGSSGAMDYWGQGTLVTVSS VL: EIVMTQSPATLSVSPGERATLSCKASQNVGTAVAWYQQKPGQSPRLLIYSASNRYTGIPARFSGSGSGTEFTLTISSLQSEDFAVYFCQQYSSYPYTFGGGTKVEIK",1.86,75.3,0.0939,58.8,0.0518,0.224,40.8,5.25e-05,1.29e+06,,,,,,,,,
"hum_LT-m37-14 (antibody, human IgG4, V domains shown, humanized from LT-m37) VH: QVQLVQSGAEVKKPGASVKVSCKASGYSFTGYFINWVRQAPGQSLEWIGRIYPYNVDTFYNQNFKGRATLTADKSTSTAYMELSSLRSEDTAVYYCGRGTHYYGSSGAMDYWGQGTLVTVSS VL: EIVLTQSPATLSVSPGERATLSCKASQNVGTAVAWYQQKPGQSPRLLIYSASNRYTGIPARFSGSGSGTEFTLTISSLQSEDFAVYYCQQYSSYPYTFGGGTKVEIK",,,,104,,,,,,1860,1020,46.4,0.352,0.332,182,161,,
"hum_LT-m37-16 (antibody, human IgG4, V domains shown, humanized from LT-m37) VH: QVQLVQSGAEVKKPGASVKVSCKASGYSFTGYFINWVRQAPGQGLEWIGRIYPYNVDTFYNQNFKGRVTMTADKSTSTAYMELSSLRSEDTAVYYCGRGTHYYGSSGAMDYWGQGTLVTVSS VL: EIVLTQSPATLSVSPGERATLSCKASQNVGTAVAWYQQKPGQSPRLLIYSASNRYTGIPARFSGSGSGTEFTLTISSLQSEDFAVYYCQQYSSYPYTFGGGTKVEIK",,,,104,,,,,,2550,808,36.9,0.305,0.385,158,179,,
"hum_LT-m58-4 (antibody, human IgG4, V domains shown, humanized from LT-m58) VH: QVQLVQSGAEVKKPGASVKVSCKASGYTFIDHIMNWVRKAPGQGLEWMGRIYPVSGETNYNQKFMGRATFTVDRSTSTVYMELSSLRSEDTAVYYCGRGSYYWNAMDYWGQGTLVTVSS VL: EIVMTQSPATLSVSPGERATLSCKASQSVDFDGESYMNWYQQKPGQPPRLLIYSASNLESGIPARFSGSGSGTEFTLTISSLQSEDFAVYYCQQSIEDPWTFGQGTKLEIK",,,,,,,,,,,,,,,,,6.17,208
"hum_LT-m58-3 (antibody, human IgG4, V domains shown, humanized from LT-m58) VH: QVQLVQSGAEVKKPGASVKVSCKASGYTFIDHIMNWVRKAPGQGLEWMGRIYPVSGETNYNQKFMGRATFTVDRSTSTVYMELSSLRSEDTAVYYCGRGSYYWNAMDYWGQGTLVTVSS VL: DIVMTQSPDSLAVSLGERATINCKASQSVDFDGDSYMNWYQQKPGQPPKLLIYSASNLESGVPDRFSGSGSGTDFTLTISSLQAEDVAVYYCQQSIEDPWTFGQGTKVEIK",,,,,,,,,,,,,,,,,11.2,169

# Further binders by falling EC50 [4], results first:
"IC50, LTβR NF-κB luciferase reporter, HEK293-LIGHT cells [1] [µg/mL]",IC50 (hFc-human LIGHT [2]) [pM],EC50 (His-human LIGHT [3]) [µg/mL],EC50 [4] [pM],"IC50, HVEM NF-κB luciferase reporter, free LIGHT (His-human LIGHT [5]) [µg/mL]","IC50, LTβR NF-κB luciferase reporter, free LIGHT (His-human LIGHT [6]) [µg/mL]",Kd (His-human LIGHT [7]) [pM],koff (His-human LIGHT [7]) [s⁻¹],kon (His-human LIGHT [7]) [M⁻¹ s⁻¹],"IC50, LTβR NF-κB luciferase reporter, HEK293-LIGHT cells [8] [pM]",IC50 (hFc-human LIGHT [9]) [pM],EC50 (His-human LIGHT [10]) [pM],"IC50, LIGHT induced MMP-9 production in BEAS-2B bronchial epithelial cells (His-human LIGHT [11]) [µg/mL]","IC50, proliferation of CD3+ T cells stimulated by plate-bound anti-CD3 and His-huLIGHT (CellTiter Glo) (His-human LIGHT [12]) [µg/mL]","IC50, LTβR NF-κB luciferase reporter, free LIGHT (His-human LIGHT [13]) [pM]","IC50, HVEM NF-κB luciferase reporter, free LIGHT (His-human LIGHT [14]) [pM]",EC50 (His-human LIGHT [15]) [pM],IC50 (hFc-human LIGHT [16]) [pM],Binder
2.56,74.8,0.0859,52.7,0.0677,0.129,241,7.1e-05,295000,,,,,,,,,,"hum_LT-m37-4 (antibody, human IgG4, V domains shown, humanized from LT-m37) VH: QVQLVQSGAEVKKPGASVKVSCKASGYSFTGYFINWVRQAPGQGLEWIGRIYPYNVNTFYNQNFKGRVTMTADKSTSTAYMELSSLRSEDTAVYYCGRGTHYYGSSGAMDYWGQGTLVTVSS VL: EIVLTQSPATLSVSPGERATLSCKASQNVGTAVAWYQQKPGQSPRLLIYSASNRYTGIPARFSGSGSGTEFTLTISSLQSEDFAVYFCQQYSSYPYTFGGGTKVEIK"
3.54,59.8,0.081,51.7,0.0918,0.293,,,,,,,,,,,,,"hum_LT-m37-2 (antibody, human IgG4, V domains shown, humanized from LT-m37) VH: QVQLVQSGAEVKKPGASVKVSCKASGYSFTGYFINWVRQAPGQGLEWIGRIYPYNVNTFYNQNFKGRATLTADKSTSTAYMELSSLRSEDTAVYYCGRGTHYYGSSGAMDYWGQGTLVTVSS VL: EIVLTQSPATLSVSPGERATLSCKASQNVGTAVAWYQQKPGQSPRLLIYSASNRYTGIPARFSGSGSGTEFTLTISSLQSEDFAVYFCQQYSSYPYTFGGGTKVEIK"
2.22,77.1,0.0837,51.4,0.062,0.16,57.5,6.34e-05,1.1e+06,,,,,,,,,,"hum_LT-m37-5 (antibody, human IgG4, V domains shown, humanized from LT-m37) VH: QVQLVQSGAEVKKPGASVKVSCKASGYSFTGYFINWVRQAPGQSLEWIGRIYPYNVNTFYNQNFKGRATLTADKSTSTAYMELSSLRSEDTAVYYCGRGTHYYGSSGAMDYWGQGTLVTVSS VL: EIVMTQSPATLSVSPGERATLSCKASQNVGTAVAWYQQKPGQSPRLLIYSASNRYTGIPARFSGSGSGTEFTLTISSLQSEDFAVYFCQQYSSYPYTFGGGTKVEIK"
5.39,75.4,0.0662,46.8,0.118,0.269,,,,,,,,,,,,,"hum_LT-m37-1 (antibody, human IgG4, V domains shown, humanized from LT-m37) VH: QVQLVQSGAEVKKPGASVKVSCKASGYSFTGYFINWVRQAPGQSLEWIGRIYPYNVNTFYNQNFKGRATLTADKSTSTAYMELSSLRSEDTAVYYCGRGTHYYGSSGAMDYWGQGTLVTVSS VL: EIVLTQSPATLSVSPGERATLSCKASQNVGTAVAWYQQKPGQSPRLLIYSASNRYTGIPARFSGSGSGTEFTLTISSLQSEDFAVYFCQQYSSYPYTFGGGTKVEIK"
